Results as given in patent publication US20050064514A1 (MacroGenics, published 2005).

Columns and labels:
[1] = target: T1, FcγRIIB-Fc fusion protein (soluble dimeric FcγRIIB) (human, UniProt P31994 43-217); experiment: BIAcore ch4-4-20
T1 construct: extracellular domain; also called FcRIIB-Fc; FcR2B; not shown: hinge-CH2-CH3 domain of human IgG2
T1 sequence (looked up): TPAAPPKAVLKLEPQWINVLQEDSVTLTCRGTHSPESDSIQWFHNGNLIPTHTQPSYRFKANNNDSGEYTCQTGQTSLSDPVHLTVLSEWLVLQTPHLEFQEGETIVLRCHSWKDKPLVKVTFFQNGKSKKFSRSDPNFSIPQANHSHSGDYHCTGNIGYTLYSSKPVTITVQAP

[2] = target: T1, FcγRIIB-Fc fusion protein (soluble …); experiment: BIAcore
[3] = target: T1, FcγRIIB-Fc fusion protein (soluble …); experiment: BIAcore separate fit

Row | Binder | Koff WT/Mut [1] | koff [2] [s⁻¹] | koff [3] [s⁻¹]
1 | ch4-4-20 MgFc66 (A330V, G427M) (antibody) chain 1: not shown chain 2: DVVMTQTPLSLPVSLGDQASISCRSSQSLVHSNGNTYLRWYLQKPGQSPKVLIYKVSNRFSGVPDRFSGSGSGTDFTLKISRVEAEDLGVYFCSQSTHVPWTFGGGTKLEIKRTVAAPSVFIFPPSDEQLKSGTASVVCLLNNFYPREAKVQWKVDNALQSGNSQESVTEQDSKDSTYSLSSTLTLSKADYEKHKVYACEVTHQGLSSPVTKSFNRGEC | 0.62 |  | 
2 | ch4-4-20 K288N, A330S, P396L (antibody) EPKSCDKTHTCPPCPAPELLGGPSVFLFPPKPKDTLMISRTPEVTCVVVDVSHEDPEVKFNWYVDGVEVHNANTKPREEQYNSTYRVVSVLTVLHQDWLNGKEYKCKVSNKALPSPIEKTISKAKGQPREPQVYTLPPSREEMTKNQVSLTCLVKGFYPSDIAVEWESNGQPENNYKTTPLVLDSDGSFFLYSKLTVDKSRWQQGNVFSCSVMHEALHNHYTQKSLSLSPGK |  | 0.05 | 0.05
3 | ch4-4-20 Y319F, P352L, P396L (antibody) EPKSCDKTHTCPPCPAPELLGGPSVFLFPPKPKDTLMISRTPEVTCVVVDVSHEDPEVKFNWYVDGVEVHNAKTKPREEQYNSTYRVVSVLTVLHQDWLNGKEFKCKVSNKALPAPIEKTISKAKGQPREPQVYTLLPSREEMTKNQVSLTCLVKGFYPSDIAVEWESNGQPENNYKTTPLVLDSDGSFFLYSKLTVDKSRWQQGNVFSCSVMHEALHNHYTQKSLSLSPGK | 2.29 | 0.041 | 
4 | ch4-4-20 E293V, Q295E, A327T (antibody) EPKSCDKTHTCPPCPAPELLGGPSVFLFPPKPKDTLMISRTPEVTCVVVDVSHEDPEVKFNWYVDGVEVHNAKTKPRVEEYNSTYRVVSVLTVLHQDWLNGKEYKCKVSNKTLPAPIEKTISKAKGQPREPQVYTLPPSREEMTKNQVSLTCLVKGFYPSDIAVEWESNGQPENNYKTTPPVLDSDGSFFLYSKLTVDKSRWQQGNVFSCSVMHEALHNHYTQKSLSLSPGK | 1.3 | 0.074 | 
